Source: patent US20240109967A1 (University of Pennsylvania, published 2024)
Read-outs that look alike come from different tables or passages of the source. Values belong to the binder of their own block, whether it stands above or below them.

What was measured:
[1] = target: T1, human complement C1q (in normal human complement serum) (human, UniProt P02745 23-245; P02746 28-253; P02747 29-245); assay: complement fixation ELISA: antibody titrated on captured cCTLA-4, C1q of human serum detected
T1 construct: also called human serum complement
T1 sequence (P02745 23-245 limits assumed, chain 1 of 3): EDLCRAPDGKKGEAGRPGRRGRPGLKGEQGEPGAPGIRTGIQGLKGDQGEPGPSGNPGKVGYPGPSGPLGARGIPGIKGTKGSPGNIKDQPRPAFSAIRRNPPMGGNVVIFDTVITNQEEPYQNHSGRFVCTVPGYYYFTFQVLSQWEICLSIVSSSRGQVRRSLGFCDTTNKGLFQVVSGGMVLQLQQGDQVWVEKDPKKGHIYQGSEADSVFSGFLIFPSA
T1 sequence (P02746 28-253 limits assumed, chain 2 of 3): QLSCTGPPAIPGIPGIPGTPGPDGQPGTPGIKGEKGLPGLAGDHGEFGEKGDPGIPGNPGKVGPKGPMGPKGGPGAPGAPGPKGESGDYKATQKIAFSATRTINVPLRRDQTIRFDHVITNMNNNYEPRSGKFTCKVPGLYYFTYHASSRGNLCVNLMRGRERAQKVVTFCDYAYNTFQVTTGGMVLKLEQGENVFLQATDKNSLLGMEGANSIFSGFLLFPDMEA
T1 sequence (P02747 29-245 limits assumed, chain 3 of 3): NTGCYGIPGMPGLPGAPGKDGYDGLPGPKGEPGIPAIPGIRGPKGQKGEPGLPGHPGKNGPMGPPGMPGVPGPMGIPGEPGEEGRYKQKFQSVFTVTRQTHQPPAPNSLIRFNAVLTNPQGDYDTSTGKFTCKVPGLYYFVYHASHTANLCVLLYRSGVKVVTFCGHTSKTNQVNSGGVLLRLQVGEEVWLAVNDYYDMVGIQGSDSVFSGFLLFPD

[2] = target: T2, recombinant canine CTLA-4 extracellular domain protein (canine, UniProt Q9XSI1 36-161, biotin on the Avi tag (BirA ligase) in the ELISA, panning and interaction assays); assay: ELISA; the axis is the amount of CTLA4 per well, not the mAb concentration
T2 construct: Cloned into pFUSE containing an HA tag, made in 293T cells; The SPR analyte is called soluble cCTLA-4 ECD, and biotinylation is not mentioned there; also called cCTLA-4; cCTLA-4 ECD
T2 chain: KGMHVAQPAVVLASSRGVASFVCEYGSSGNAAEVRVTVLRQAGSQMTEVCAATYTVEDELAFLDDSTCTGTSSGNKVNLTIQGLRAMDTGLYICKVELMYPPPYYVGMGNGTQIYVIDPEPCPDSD

[3] = target: T2, recombinant canine CTLA-4 extracellular …; assay: SPR, mAb captured on the chip, cCTLA-4 ECD as analyte
[4] = target: T2, recombinant canine CTLA-4 extracellular …; assay: ELISA; the axis is the amount of coated CTLA4, not the mAb concentration
[5] = target: T2, recombinant canine CTLA-4 extracellular …; assay: SPR, full-length canine mAb and cCTLA-4
[6] = target: T2, recombinant canine CTLA-4 extracellular …; assay: SPR, mAb captured on the chip, cCTLA-4 ECD as analyte
[7] = target: T2, recombinant canine CTLA-4 extracellular …; assay: scFv expression extract ELISA on cCTLA-4 (data not shown)
[8] = target: T2, recombinant canine CTLA-4 extracellular …; assay: ELISA; the axis is the amount of coated cCTLA-4, scFv fixed at 0.25 ug/ml

B1: A1mut2 full-length canine IgG3 (IgGC) mAb, HA-tagged (antibody)
heavy: EVQLVETGGDLVKPGGSLRLSCVASGFSFSSYAMNWVRQAPEKGLQLVGGINSGGSSTYYTDAVKGRFTISRDNAKNTVYLQMNSLRAEDTAVYYCAISNWAYWGQGTLVTVSSASTTAPSVFPLAPSCGSQSGSTVALACLVSGYIPEPVTVSWNSGSLTSGVHTFPSILQSSGLYSLSSMVTVPSSRWPSETFTCNVAHPATNTKVDKPVVKECECKCNCNNCPCPGCGLLGGPSVFIFPPKPKDILVTARTPTVTCVVVDLDPENPEVQISWFVDSKQVQTANTQPREEQSNGTYRVVSVLPIGHQDWLSGKQFKCKVNNKALPSPIEEIISKTPGQAHQPNVYVLPPSRDEMSKNTVTLTCLVKDFFPPEIDVEWQSNGQQEPESKYRMTPPQLDEDGSYFLYSKLSVDKSRWQRGDTFICAVMHEALHNHYTQKSLSHSPGKGGGSGGGSYPYDVPDYA
light: QAVLNQPASVSGSLGQRVTISCTGSSSDIGKSYVAWYQQLPGTGPRTLINVDGNRASGVPDRFSVSRSGNTATLTISGLQAEDEADYHCSSWDWSLHTYVFGSGTQLTILGQPKASPSVTLFPPSSEELGANKATLVCLISDFYPSGVTVAWKADGSPITQGVETTKPSKQSNNKYAASSYLSLTPDKWKSHSSFSCLVTHEGSTVEKKVAPAECS
notes: also called A1mut2 IgGC
- EC50 (read off the curve) [1]: ~0.5 ug/ml antibody

B2: A1mut2 full-length canine IgG2 (IgGB) mAb, HA-tagged (antibody)
heavy: EVQLVETGGDLVKPGGSLRLSCVASGFSFSSYAMNWVRQAPEKGLQLVGGINSGGSSTYYTDAVKGRFTISRDNAKNTVYLQMNSLRAEDTAVYYCAISNWAYWGQGTLVTVSSASTTAPSVFPLAPSCGSTSGSTVALACLVSGYFPEPVTVSWNSGSLTSGVHTFPSVLQSSGLYSLSSMVTVPSSRWPSETFTCNVAHPASKTKVDKPVPKRENGRVPRPPDCPKCPAPEMLGGPSVFIFPPKPKDTLLIARTPEVTCVVVDLDPEDPEVQISWFVDGKQMQTAKTQPREEQFNGTYRVVSVLPIGHQDWLKGKQFTCKVNNKALPSPIERTISKARGQAHQPSVYVLPPSREELSKNTVSLTCLIKDFFPPDIDVEWQSNGQQEPESKYRTTPPQLDEDGSYFLYSKLSVDKSRWQRGDTFICAVMHEALHNHYTQESLSHSPGKGGGSGGGSYPYDVPDYA
light: QAVLNQPASVSGSLGQRVTISCTGSSSDIGKSYVAWYQQLPGTGPRTLINVDGNRASGVPDRFSVSRSGNTATLTISGLQAEDEADYHCSSWDWSLHTYVFGSGTQLTILGQPKASPSVTLFPPSSEELGANKATLVCLISDFYPSGVTVAWKADGSPITQGVETTKPSKQSNNKYAASSYLSLTPDKWKSHSSFSCLVTHEGSTVEKKVAPAECS
notes: also called A1mut2 IgGB
- EC50 (read off the curve) [1]: ~0.6 ug/ml antibody

B4: D5 full-length canine IgG1 (IgGA) mAb (antibody)
heavy: EVQLVETGGDLMKPGGSLRLSCVASGFTFSSYSMSWVRQAPEKGLQLVAGINSGGSSTYYTDAVKGRFTISRDNAKNTLYLQMNSLRDEDTAVYYCVISNWSYWGQGTLVTVSSASTTAPSVFPLAPSCGSTSGSTVALACLVSGYFPEPVTVSWNSGSLTSGVHTFPSVLQSSGLYSLSSMVTVPSSRWPSETFTCNVVHPASNTKVDKPVFNECRCTDTPPCPVPEPLGGPSVLIFPPKPKDILRITRTPEVTCVVLDLGREDPEVQISWFVDGKEVHTAKTQSREQQFNGTYRVVSVLPIEHQDWLTGKEFKCRVNHIDLPSPIERTISKARGRAHKPSVYVLPPSPKELSSSDTVSVTCLIKDFYPPDIDVEWQSNGQQEPERKHRMTPPQLDEDGSYFLYSKLSVDKSRWQQGDPFTCAVMHETLQNHYTDLSLSHSPGKGGGSGGGSYPYDVPDYA
light: QPVLTQPPSVSAALGQRVTISCTGTATNVGGGYDVQWYQQFPGRPPKTIIYGNYNRPSGVPDRFSASTSGTTATLTISGLQAEDEANYYCSSWDNSLTAYVFGSGTQLTILGQPKASPSVTLFPPSSEELGANKATLVCLISDFYPSGVTVAWKADGSPITQGVETTKPSKQSNNKYAASSYLSLTPDKWKSHSSFSCLVTHEGSTVEKKVAPAECS
notes: The HA tag is placed on the heavy chain; also called D5 mAb; D5 antibody
- EC50 (read off the curve) [2]: ~0.7 pmol/well CTLA4
- EC50 (read off the curve) [4]: ~0.2 pmol biotinylated CTLA4/well
- Kd [5]: 1.5 nM
- kon [5]: 120000 M⁻¹ s⁻¹
- t1/2 [5]: 64 min
- Kd [6]: 1.5 nM
- koff [6]: 0.00018 s⁻¹
- kon [6]: 120000 M⁻¹ s⁻¹
- t1/2 [6]: 64 min

B5: A1 scFv (soluble, His and HA tagged) (scFv)
scFv: QAVLNQPASVSGSLGQRVTISCTGSSSDIGKSYVAWYQQLPGTGPRTLINVDGNRASGVPDRFSVSRSGNTATLTISGLQAEDEADYHCSSWDWSLHTYVFGSGTQLTILGGGSSRSSSSGGGGSGGGGEVQLVESGGDLVKPAGSLRLSCVASGFSFSSYAMNWVRQAPGKGLQWIAGINSGGSSTSHIDAIKGRFTISRDNAKNTLYLQMNSLRAEDTAVYYCAISNWAYWGQGTLVTVSSESPSPPNLTSGQAGQHHHHHHGAYPYDVPDYAS
notes: Canine scFv from panning round 3; also called clone A1
- fold increase in binding over background [7]: > 20 fold
- EC50 (read off the curve) [8]: ~0.3 pmol biotinylated cCTLA4

B7: D5 scFv (soluble, His and HA tagged) (scFv)
scFv: QPVLTQPPSVSAALGQRVTISCTGTATNVGGGYDVQWYQQFPGRPPKTIIYGNYNRPSGVPDRFSASTSGTTATLTISGLQAEDEANYYCSSWDNSLTAYVFGSGTQLTILGGGSSRSSSSGGGGSGGGGEVQLVETGGDLMKPGGSLRLSCVASGFTFSSYSMSWVRQAPEKGLQLVAGINSGGSSTYYTDAVKGRFTISRDNAKNTLYLQMNSLRDEDTAVYYCVISNWSYWGQGTLVTVSSESPSPPNLTSGQAGQHHHHHHGAYPYDVPDYAS
notes: Canine scFv from panning round 4; also called clone D5
- fold increase in binding over background [7]: > 20 fold
- EC50 (read off the curve) [8]: ~0.4 pmol biotinylated cCTLA4

Next, values leading:

- EC50 (read off the curve) [2]: ~0.9 pmol/well CTLA4
- Kd [3]: 1.5 nM
- koff [3]: 0.00025 s⁻¹
- kon [3]: 160000 M⁻¹ s⁻¹
- t1/2 [3]: 46 min
- EC50 (read off the curve) [4]: ~0.2 pmol biotinylated CTLA4/well
- Kd [5]: 1.5 nM
- kon [5]: 160000 M⁻¹ s⁻¹
- t1/2 [5]: 46 min
B3: B10 full-length canine IgG1 (IgGA) mAb (antibody)
heavy: EVQLVETGGDLVKPGGSLRLSCVASGFTFSDYPMNWVRQAPEKGLQLVGGINSGGSATYYTDAVKGRFTISRDNAKNTVYLQMNSLRAEDTAMYYCATSNFQYWGQGTLVTVSSASTTAPSVFPLAPSCGSTSGSTVALACLVSGYFPEPVTVSWNSGSLTSGVHTFPSVLQSSGLYSLSSMVTVPSSRWPSETFTCNVVHPASNTKVDKPVFNECRCTDTPPCPVPEPLGGPSVLIFPPKPKDILRITRTPEVTCVVLDLGREDPEVQISWFVDGKEVHTAKTQSREQQFNGTYRVVSVLPIEHQDWLTGKEFKCRVNHIDLPSPIERTISKARGRAHKPSVYVLPPSPKELSSSDTVSVTCLIKDFYPPDIDVEWQSNGQQEPERKHRMTPPQLDEDGSYFLYSKLSVDKSRWQQGDPFTCAVMHETLQNHYTDLSLSHSPGKGGGSGGGSYPYDVPDYA
light: QAVLNQPASVSAALGQRVTISCNTNIGSPYDVQWYQQLPGKSPKTIIYGNSNRPSGVPVRFSGSKSGSTATLTIAGIQAEDEADYYCQSYDDNVDGYVFGSGTQLTVLGQPKASPSVTLFPPSSEELGANKATLVCLISDFYPSGVTVAWKADGSPITQGVETTKPSKQSNNKYAASSYLSLTPDKWKSHSSFSCLVTHEGSTVEKKVAPAECS
notes: The HA tag is placed on the heavy chain; also called B10 mAb; B10 antibody

- fold increase in binding over background [7]: > 20 fold
- EC50 (read off the curve) [8]: ~0.6 pmol biotinylated cCTLA4
B6: B10 scFv (soluble, His and HA tagged) (scFv)
scFv: QAVLNQPASVSAALGQRVTISCNTNIGSPYDVQWYQQLPGKSPKTIIYGNSNRPSGVPVRFSGSKSGSTATLTIAGIQAEDEADYYCQSYDDNVDGYVFGSGTQLTVLGGGSSRSSSSGGGGSGGGGEVQLVETGGDLVKPGGSLRLSCVASGFTFSDYPMNWVRQAPEKGLQLVGGINSGGSATYYTDAVKGRFTISRDNAKNTVYLQMNSLRAEDTAMYYCATSNFQYWGQGTLVTVSSESPSPPNLTSGQAGQHHHHHHGAYPYDVPDYAS
notes: Canine scFv from panning round 3; also called clone B10

- EC50 (read off the curve) [2]: ~0.7 pmol/well CTLA4
B8: clone A1 full-length canine IgG1 (IgGA) mAb (antibody, V domains shown)
VH: EVQLVESGGDLVKPAGSLRLSCVASGFSFSSYAMNWVRQAPGKGLQWIAGINSGGSSTSHIDAIKGRFTISRDNAKNTLYLQMNSLRAEDTAVYYCAISNWAYWGQGTLVTVSS
VL: QAVLNQPASVSGSLGQRVTISCTGSSSDIGKSYVAWYQQLPGTGPRTLINVDGNRASGVPDRFSVSRSGNTATLTISGLQAEDEADYHCSSWDWSLHTYVFGSGTQLTILG
notes: Produced only at low levels; also called A1 mAb
